This data set concerns the molecule itself. The experiment in a line: non-reducing SDS-PAGE and immunoblot.

This note sets out measurements from article PMC3326351 (International Journal of Oncology, 2011).

B1: His-tagged MUC1-C cytoplasmic domain (domain or fragment, human, UniProt P15941 1182-1255, looked up)
chain: AVCQCRRKNYGQLDIFPARDTYHPMSEYPTYHTHGRYVPPSSTDRSPYEKVSAGNGGSSLSYTNPAVAATSANL
As for B1, the binding result is reported as “binds”.
